{"source": "paper PMC5510646", "about": "(The Biochemical journal, 2017)", "binders": {"B1": {"name": "Grem2 K66A/K69A (natural protein)", "chain": "RKNRPAGAIPSPYKDGSSNNSERWHHQIKEVLASSQEALVVTERAYLASDWCKTQPLRQTVSEEGCRSRTILNRFCYGQCNSFYIPRHVKKEEDSFQSCAFCKPQRVTSVIVELECPGLDPPFRIKKIQKVKHCRCMSVNLSDSDKQ"}, "B2": {"name": "Grem2 K111A/K112A (natural protein)", "chain": "B1 chain with A45K, A48K, K90A, K91A"}, "B3": {"name": "Grem2 K147A/K148A (natural protein)", "chain": "B1 chain with A45K, A48K, K126A, K127A"}, "B4": {"name": "Grem2 K151A/K153A (natural protein)", "chain": "B1 chain with A45K, A48K, K130A, K132A"}, "B5": {"name": "Recombinant mature BMP2 (ligand, UniProt P12643 283-396, looked up)", "chain": "QAKHKQRKRLKSSCKRHPLYVDFSDVGWNDWIVAPPGYHAFYCHGECPFPLADHLNSTNHAIVQTLVNSVNSKIPKACCVPTELSAISMLYLDENEKVVLKNYQDMVVEGCGCR"}}, "key": {"SEC": {"target": "the molecule itself", "experiment": "SEC"}, "[1]": {"target": "T1, Grem2 K147A/K148A/K151A/K153A (UniProt O88273 22-168, K147A | K148A | K151A | K153A)", "T1 sequence": "B1 chain with A45K, A48K, K126A, K127A, K130A, K132A", "experiment": "SPR"}, "Grem2 K111A/K112A": {"target": "B2", "experiment": "SPR"}, "Grem2 K151A/K153A": {"target": "B4", "experiment": "SPR"}, "Grem2 K147A/K148A": {"target": "B3", "experiment": "SPR"}, "[2]": {"target": "T2, Grem2 K66A/K69A/K147A/K148A (UniProt O88273 22-168, K66A | K69A | K147A | K148A)", "T2 sequence": "B1 chain with K126A, K127A", "experiment": "SPR"}, "Grem2 K66A/K69A": {"target": "B1", "experiment": "SPR"}, "[3]": {"target": "T3, Grem2 K111A/K112A/K151A/K153A (UniProt O88273 22-168, K111A | K112A | K151A | K153A)", "T3 sequence": "B1 chain with A45K, A48K, K90A, K91A, K130A, K132A", "experiment": "SPR"}, "Gremlin-2 wild type": {"target": "T4, Gremlin-2 wild type (UniProt O88273 22-168)", "T4 sequence": "B1 chain with A45K, A48K", "experiment": "SPR"}}, "note": "Substitutions are numbered along the chain they refer to. Names and notes keep the numbering of the source."}
{"binder": "B1", "values": [{"measurement": "stoichiometry N", "setting": "SEC", "value": 2}]}
{"binder": "B2", "values": [{"measurement": "stoichiometry N", "setting": "SEC", "value": 2}]}
{"binder": "B3", "values": [{"measurement": "stoichiometry N", "setting": "SEC", "value": 2}]}
{"binder": "B4", "values": [{"measurement": "stoichiometry N", "setting": "SEC", "value": 2}]}
{"binder": "B5", "values": [{"measurement": "Kd", "setting": "[1]", "value": 4.4, "unit": "nM"}, {"measurement": "Kd", "setting": "Grem2 K111A/K112A", "value": 1.77, "unit": "nM"}, {"measurement": "Kd", "setting": "Grem2 K151A/K153A", "value": 1.3, "unit": "nM"}, {"measurement": "Kd", "setting": "Grem2 K147A/K148A", "value": 1.98, "unit": "nM"}, {"measurement": "Kd", "setting": "[2]", "value": 5.66, "unit": "nM"}, {"measurement": "Kd", "setting": "Grem2 K66A/K69A", "value": 2.4, "unit": "nM"}, {"measurement": "Kd", "setting": "[3]", "value": 2.11, "unit": "nM"}, {"measurement": "Kd", "setting": "Gremlin-2 wild type", "value": 1.42, "unit": "nM"}]}
